Consider eleven molecules from PMC10570036, “Yeast transcription factor Msn2 binds to G4 DNA”.

For series [1], the target named is T1, GST-Msn2(596-704) zinc-finger domain (Saccharomyces cerevisiae, UniProt P33748 596-704).
T1 sequence: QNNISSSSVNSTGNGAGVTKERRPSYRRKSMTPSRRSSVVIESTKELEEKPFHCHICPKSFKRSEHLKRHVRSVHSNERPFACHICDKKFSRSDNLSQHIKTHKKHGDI
As to the kind of experiment: EMSA; folded in 100 mM K+; EMSA: oligos (0.1 uM) folded in 10 mM Tris-HCl pH 7.5, 100 mM KCl or LiCl; binding in 10 mM Tris-HCl pH 8.0, 1 mM DTT, 0.01% NP-40, 5% glycerol, 50 uM ZnSO4, room temperature 30 min; pull-down: 400 pmol biotin oligo folded in 100 mM KCl or LiCl, streptavidin beads, yeast whole cell lysate. The settings on record: protein: recombinant, tags: N-terminal GST (pGEX4T1), label: 5' Cy5.

Series [2] concerns the target T1, GST-Msn2(596-704) zinc-finger domain. As to the kind of experiment: EMSA; 100 mM K+; EMSA: oligos (0.1 uM) folded in 10 mM Tris-HCl pH 7.5, 100 mM KCl or LiCl; binding in 10 mM Tris-HCl pH 8.0, 1 mM DTT, 0.01% NP-40, 5% glycerol, 50 uM ZnSO4, room temperature 30 min; pull-down: 400 pmol biotin oligo folded in 100 mM KCl or LiCl, streptavidin beads, yeast whole cell lysate. The settings on record: protein: recombinant; tags: N-terminal GST (pGEX4T1); label: 5' Cy5 on sense strand; blunt.

Series [3] has the same target. Briefly: EMSA; EMSA: oligos (0.1 uM) folded in 10 mM Tris-HCl pH 7.5, 100 mM KCl or LiCl; binding in 10 mM Tris-HCl pH 8.0, 1 mM DTT, 0.01% NP-40, 5% glycerol, 50 uM ZnSO4, room temperature 30 min; pull-down: 400 pmol biotin oligo folded in 100 mM KCl or LiCl, streptavidin beads, yeast whole cell lysate. The settings on record: protein: recombinant; tags: N-terminal GST (pGEX4T1); label: 5' Cy5 on sense strand; blunt.

Series [4] has the same target. As to the kind of experiment: EMSA; folded in K+ or Li+; no significant interaction; EMSA: oligos (0.1 uM) folded in 10 mM Tris-HCl pH 7.5, 100 mM KCl or LiCl; binding in 10 mM Tris-HCl pH 8.0, 1 mM DTT, 0.01% NP-40, 5% glycerol, 50 uM ZnSO4, room temperature 30 min; pull-down: 400 pmol biotin oligo folded in 100 mM KCl or LiCl, streptavidin beads, yeast whole cell lysate. The settings on record: protein: recombinant; tags: N-terminal GST (pGEX4T1); label: 5' Cy5; G4.

The target is the same in series [5]. Briefly: EMSA; folded in 100 mM K+; 50 uM Zn2+; EMSA: oligos (0.1 uM) folded in 10 mM Tris-HCl pH 7.5, 100 mM KCl or LiCl; binding in 10 mM Tris-HCl pH 8.0, 1 mM DTT, 0.01% NP-40, 5% glycerol, 50 uM ZnSO4, room temperature 30 min; pull-down: 400 pmol biotin oligo folded in 100 mM KCl or LiCl, streptavidin beads, yeast whole cell lysate. The settings on record: protein: recombinant, tags: N-terminal GST (pGEX4T1), label: 5' Cy5.

In the case of GAGCTGGGGTGAGCTGGGCTGAGCTGGGGTGAGCTGGGCTGAGCT (structured_DNA) [Cy5-SµG], the binding result in series [1] (G4) is given as “binds”.

B1: dsCTT1 (dsDNA)
DNA 1: CTCTTTTTCAAGGGGATCACCGGTAAGGGGCCAATCTGTG
DNA 2: CACAGATTGGCCCCTTACCGGTGATCCCCTTGAAAAAGAG
With B1, the binding result in series [2] is recorded as “binds”. With ATTCTTGGGGCTGGGGTCCCTTGGGGAACTGTATTGGGTGAACC (structured_DNA) [Cy5-ATG7 G4], the binding result in series [1] (G4) is “binds”.

B2: dsCTT1STREMut (dsDNA)
DNA 1: CTCTTTTTCATGTGTATCACCGGTATGTGTCCAATCTGTG
DNA 2: CACAGATTGGACACATACCGGTGATACACATGAAAAAGAG
On to B2, for which the binding result in series [3] is recorded as “no binding”.

GGACCGAGAGCACACCGAGATAGAGAGTCCGGAGAGTTAAC (ssDNA) [Cy5-ATG39pG4Mut]: the binding result in series [1] is “no binding”.

Regarding CCCGGGCGGGCGCGAGGGAGGGGAGG (structured_DNA) [c-KIT2Long], the binding result in series [4] is given as “no binding”. GGACCGGGGGCACACCGGGGTAGGGGGTCCGGAGGGTTAAC (structured_DNA) [Cy5-ATG39pG4]: the dissociation constant Kd in series [5] (intramolecular parallel G4) is 30.2 ± 7.2 nM. With TGGGTGTTGTTGGGGGAGGGAAATGGGT (structured_DNA) [Cy5-BRCA1-G3], the equilibrium dissociation constant (Kd) in series [5] (parallel G4 in K+) was 37.8 ± 11.4 nM. CCGCTGAGCAGGTCAGAGCAGAGACTCTCAGAGAGACGCCA (ssDNA) [Cy5-TPS1pG4Mut]: the binding result in series [1] is “no binding”. With CCGCTGGGCAGGTCAGGGCAGGGGCTCTCAGGGGGGCGCCA (structured_DNA) [Cy5-TPS1pG4], the binding result in series [1] (G4) is given as “binds”.

For the molecule GGGCGGGCGCGAGGGAGGGG (structured_DNA) [Cy5-c-KIT2], the binding result in series [1] (G4) is on record as “no binding”.
